Test [1] has as its target carboxy-terminal truncated Hsp20 (Babesia bovis) (Babesia bovis). The test can be described thus: size exclusion FPLC (Superose 6) (self-association). Background: In gel filtration, larger molecules generally elute earlier.
The next test concerns the target alcohol dehydrogenase. Briefly: cell-based or functional assay.

In test [1], “carboxy-terminal truncated Hsp20 (Babesia bovis)” registered a percent of protein as dimer of 42%.
As to “His-tagged Hsp20 from Babesia bovis (full length)”, in the test with alcohol dehydrogenase, the molar ratio of greatest reduction in light scattering at time infinity (molar ratio Hsp20 to ADH) was 2 and the reduction in light scattering of ADH at 58° C., 60 minutes, molar ratio 2:1 Hsp20:ADH was 2.3 fold.

For the origin of these results see patent US20060147463A1.
